Measured values taken from article PMC7398163.

Target: FLAG-YAP tagged with a nuclear exclusion sequence (NES) (human) (UniProt P46937)
Assay: co-IP

IQGAP1 (from UniProt Q9JKF1 1-1657) (natural protein)
fold association relative to WT YAP: 2 fold
